Results reported in article doi:10.1101/2025.10.01.679551, “Mechanism of phosphoinositide regulation of lysosomal pH via inhibition of CLC-7” (bioRxiv, 2025).

B1: human ClC-7 (wild type), C-terminal 6His-tag (natural protein)
chain: MANVSKKVSWSGRDRDDEEAAPLLRRTARPGGGTPLLNGAGPGAARQSPRSALFRVGHMSSVELDDELLDPDMDPPHPFPKEIPHNEKLLSLKYESLDYDNSENQLFLEEERRINHTAFRTVEIKRWVICALIGILTGLVACFIDIVVENLAGLKYRVIKGNIDKFTEKGGLSFSLLLWATLNAAFVLVGSVIVAFIEPVAAGSGIPQIKCFLNGVKIPHVVRLKTLVIKVSGVILSVVGGLAVGKEGPMIHSGSVIAAGISQGRSTSLKRDFKIFEYFRRDTEKRDFVSAGAAAGVSAAFGAPVGGVLFSLEEGASFWNQFLTWRIFFASMISTFTLNFVLSIYHGNMWDLSSPGLINFGRFDSEKMAYTIHEIPVFIAMGVVGGVLGAVFNALNYWLTMFRIRYIHRPCLQVIEAVLVAAVTATVAFVLIYSSRDCQPLQGGSMSYPLQLFCADGEYNSMAAAFFNTPEKSVVSLFHDPPGSYNPLTLGLFTLVYFFLACWTYGLTVSAGVFIPSLLIGAAWGRLFGISLSYLTGAAIWADPGKYALMGAAAQLGGIVRMTLSLTVIMMEATSNVTYGFPIMLVLMTAKIVGDVFIEGLYDMHIQLQSVPFLHWEAPVTSHSLTAREVMSTPVTCLRRREKVGVIVDVLSDTASNHNGFPVVEHADDTQPARLQGLILRSQLIVLLKHKVFVERSNLGLVQRRLRLKDFRDAYPRFPPIQSIHVSQDERECTMDLSEFMNPSPYTVPQEASLPRVFKLFRALGLRHLVVVDNRNQVVGLVTRKDLARYRLGKRGLEELSLAQT
notes: ClC-7 Cl-/H+ antiporter, Homo sapiens, synthesised gene in pLexM; Homodimer; each subunit carries one Ostm1; The cytoplasmic domain is not resolved in the structure without lipid (9G6D); also called wtCLC7; WT-CLC7; source: HEK293F (Freestyle 293F), co-transfected with OSTM1-Flag
B2: human ClC-7 Y715C, C-terminal 6His-tag (natural protein)
chain: MANVSKKVSWSGRDRDDEEAAPLLRRTARPGGGTPLLNGAGPGAARQSPRSALFRVGHMSSVELDDELLDPDMDPPHPFPKEIPHNEKLLSLKYESLDYDNSENQLFLEEERRINHTAFRTVEIKRWVICALIGILTGLVACFIDIVVENLAGLKYRVIKGNIDKFTEKGGLSFSLLLWATLNAAFVLVGSVIVAFIEPVAAGSGIPQIKCFLNGVKIPHVVRLKTLVIKVSGVILSVVGGLAVGKEGPMIHSGSVIAAGISQGRSTSLKRDFKIFEYFRRDTEKRDFVSAGAAAGVSAAFGAPVGGVLFSLEEGASFWNQFLTWRIFFASMISTFTLNFVLSIYHGNMWDLSSPGLINFGRFDSEKMAYTIHEIPVFIAMGVVGGVLGAVFNALNYWLTMFRIRYIHRPCLQVIEAVLVAAVTATVAFVLIYSSRDCQPLQGGSMSYPLQLFCADGEYNSMAAAFFNTPEKSVVSLFHDPPGSYNPLTLGLFTLVYFFLACWTYGLTVSAGVFIPSLLIGAAWGRLFGISLSYLTGAAIWADPGKYALMGAAAQLGGIVRMTLSLTVIMMEATSNVTYGFPIMLVLMTAKIVGDVFIEGLYDMHIQLQSVPFLHWEAPVTSHSLTAREVMSTPVTCLRRREKVGVIVDVLSDTASNHNGFPVVEHADDTQPARLQGLILRSQLIVLLKHKVFVERSNLGLVQRRLRLKDFRDACPRFPPIQSIHVSQDERECTMDLSEFMNPSPYTVPQEASLPRVFKLFRALGLRHLVVVDNRNQVVGLVTRKDLARYRLGKRGLEELSLAQT
notes: ClC-7 Cl-/H+ antiporter, Homo sapiens, synthesised gene in pLexM with the patient gain-of-function mutation Y715C; Y715C is a mutation found in human patients; The cytoplasmic domain is not resolved in 9G6E; also called CLC7Y715C-His; source: HEK293F (Freestyle 293F), co-transfected with OSTM1-Flag

Legend:
[1] = molecular target: the molecule itself; test: cryo-EM structure; ClC-7/Ostm1 complex co-expressed in HEK293F, purified by FLAG affinity and SEC in LMNG/CHS with lipid bought as PI(3,5)P2 added during purification; supplemented with 0.1 % LMNG and 2.5 mM ATP; C2 symmetry
[2] = molecular target: the molecule itself; test: cryo-EM structure; ClC-7/Ostm1 complex co-expressed in HEK293F, purified by FLAG affinity and SEC in LMNG/CHS, no lipid added (apo); C2 symmetry
[3] = molecular target: B2; test: as above; settings: both partners purified
[4] = molecular target: B1; test: as above; settings: both partners purified

Binder: B1
- binding result [1]: binds

Binder: B2
- binding result [2]: binds

B3: human Ostm1, C-terminal Flag-tag (natural protein)
chain: ALPFGSSPHRVFHDLLSEQQLLEVEDLSLSLLQGGGLGPLSLPPDLPDLDPECRELLLDFANSSAELTGCLVRSARPVRLCQTCYPLFQQVVSKMDNISRAAGNTSESQSCARSLLMADRMQIVVILSEFFNTTWQEANCANCLTNNSEELSNSTVYFLNLFNHTLTCFEHNLQGNAHSLLQTKNYSEVCKNCREAYKTLSSLYSEMQKMNELENKAEPGTHLCIDVEDAMNITRKLWSRTFNCSVPCSDTVPVIAVSVFILFLPVVFYLSSFLHSEQKKRKLILPKRLKSSTSFANIQENSN
notes: Ostm1, Homo sapiens, synthesised gene in pLexM; Two copies in the ClC-7/Ostm1 complex, one for each ClC-7 subunit; also called OSTM1-Flag; source: HEK293F (Freestyle 293F), co-transfected with CLC7-His or CLC7Y715C-His; not shown: Flag, C-terminal, kept
- binding result [3]: binds
- binding result [4]: binds
